Measured values: the DeepSol protein solubility set

Assay: soluble on expression in E. coli; label from the status in PepcDB or PDB records

Sequence	soluble on expression in E. coli
MSLNRFFNRELSWLAFNTRVLNEAKDESLPLLERLKFLAIYDTNLDEFYMIRVAGLKQLYEHKIASKGIDGASPEEQLEKIKHYLAHEIEERELEFQKIQALLFKKGLCITPYNELNLEQKAKAKTYFKEQLYALVLPFKLDSSHTFPPLANLTFALFARIKDKETQIISYALIKLPSFIFRFVELEKGLFVLAEEIVEAHLEELFLEHEILDCMAFRVTCDADIAITEDEAHDYADLMSKSLRKRNQGEIVRLQTQKGSQELLKTLLASLRSFQTHSYKKHKLTGMHIYKSAIMLNLGDLWELVNHSDFKALKSPNFTPKIHPHFNENDLFKSIEKQDLLLFHPYESFEPVIDLIEQAASDPATLSIKMTLYRVGKHSPIVKALIEAASKIQVSVLVELKARFDEESNLHWAKALERAGALVVYGVFKLKVHAKMLLITKKTDNQLRHFTHLSTGNYNPLSAKVYTDVSFFSAKNEIANDIIKLFHSLLTSSATNSALETLFMAPKQIKPKIIELIQNEMNHQQEGYIILKANALVDSEIIEWLYQASQKGVKIDLIIRGICCLKPQVKGLSENIRVYSIVGKYLEHARIYYFKHENIYFSSADLMPRNLERRVELLIPATNPKIAHKLLHILEIQLKDTLKRYELNSKGRYIKVSNPNDPLNSQDYFEKQALKTFEGHHHHHH	soluble
MSLGFFNKLRQLAEDGTKMAQDGYARFNNAAFADATMAACALIGAADGQIDSQERSRTAQFITSSDKLRTFDVSKLREKYERYCDVISRDFDFGKIELMQVIGKVRKPEEARAVVQLAVVIANADGDFDAREQAVMREVIHALGLSPAEFGEGGSHHHHHH	soluble
MKKALTTRHPPIDVYCICREVTEVMEKLHAADAETIPLASNIQMVNMVNNYVIMSYGLLHDDYEYGAITESCRKDVLLLLRELFPRKIYLWEN	soluble
MGSDKIHHHHHHMIIDLSQLPEPEVIENLDFETIYQELLGDFREAMAGEWTAEVESDPVLKLLQLAAYRELLLRARINDAARAVMLAYASGADLDQIGAGFNVQRLLIRPAQPEAVPPVEAQYESDKSLRNRIQLAFEQLSVAGPRNAYIAHALGADGRVADASATSPAPCEVLISVLGVEGNGQAPEAVLQAVRLALNAEDVRPVADRVTVRSAGIVPYQVKAQLYLFPGPEAELIRAAAEASLRDYISAQRRLGRDIRRSALFATLHVEGVQRVELQEPAADVVLDETQAAYCTGYAITLGGVDE	not soluble
MLKRCNAKYSCEIIKEKRADGDDRMATIDLQKKSVKIVLEKKQLTKVTARVGLVLDITGSMRPLYKNGTVQNVVERILAVADQFDDNGLLDVWVYDNEFSRLKPVSEKDFSGYVDREILNNDRLHKFGRNDEPPVMKDVLRKYVTEEPSSYPAFIVFINDGGCKKSIKPIIEASSDKPVFWQFVGIGNGNFDFLNKLDTLEGRVIDNTNFLHIEEIDRISDDELYDALLAEFPFWLKEAKEKGIVREQEPPAEKPKKKGFFSRLFSKLEHHHHHH	soluble
MRYNQSDNKPFEEVLEASLSRRSILKGGLGISAMTAFGAFGLAGCNSSSSGTSASNGSGVSKAVLNFDSIPGSLTDAVSIPQGYTAQVLVPWGTPLNAQGSAWKNDGSNTSSDQLNALGMHHDGMHFFPLNDSTTDGLLCINHEYIDTSALHPNGPTVANGVRTIVDEVRKEINAHGVSVVRIQLEDNMWKLADTDPLNRRYTGATVMDLSGPVAHTALTVTRFSPDGSQARGTLNNCGNGYTPWGTYLTCEENWPGYFVNAGTRTEEQDRIGVDDKSTRYLWETLAGNSEERLDEFTRFNVAPTGTSSADDYRNEANGHGYIVEIDPYTQNSRAKKRTALGRFRHEGCAFGKLEAGKPVVFYSGHDSRFEYLYKFESAAAWDPADANPANRLATGDKYMDEGTLYVARFNEDSTGTWLPLTLDSVTTSGGTLADHFNSLAEIIINTAGAADLVGATPMDRPEWCSVDPFTGSVYLTLTNNTRRTDETNPANPRLNNKFGHVIRWDEGTSATDFTWDIFVFGSPANGDADTNRSGLNELNQFASPDGLAFDGRGILWIQTDNGADEVTSYTNDQMLAVVPSKLTNENGAQAVIGADNQAELKRFFVGPNGCEVTGFTISPDYKSLFVNIQHPGNWPYSDDAAQETPAGTTVRPRAATVVIRREDGGEIAVLEHHHHHH	soluble
MNKVLINDTTLRDGEQAAGVVFTLEEKVAIAKFLDTIGVPELEVGIPAMGEEEMRAICAISNLGLKANLLAWNRAVISDIKASVACGMERVHIAIPVSGIQIAAKFHGQWRVSLQRLKDCISFAVDQGLWVAVGGEDSSRADENFLLDVALYAQEWGASRFRFCDTVGVLDPFTTYGKVKLLVSALTIPVEVHTHNDFGMATANALAGIKAGASSVNTTVIGLGERAGNAALEEVVMAIKRIYGVDMGIDTPRLLELSQLVAAASGANVPPWKAIVGENTFAHESGIHAHGVLQNPDTYEPFAPEEVGWERRLVVGKHSGRHSVSNLLEQHGIFLNPEETQSVLDAVRQQSIKKKRSLTTEELLNLVKEQR	not soluble
MAHHHHHHMDAKQRESIEELKEQLRGLEEALLIQEKVMQQRNQVILSLSSSIADAENSIGESKEGLKKAEESLEEAIRSNTIAHTERLVLQEEATKYSERDEYLNELSEADAGLNAAEAQVKDLVIQINDLSREPQNKNALQRVTLVRLISMLNDLHASLKHSVQCVPHEEDNRAREVLKAIRELSRERERTFGHCLRKKREIMGVMELKKQRTDEILLESKKNVALLRDIHEKTTLDAVEKIQKERNLLQEELENIKRANQLLQDTLGSTECLCDTKGSDSASTPASISMNVASCQSTDVQKEREHLREYLRHLEEKVTQLRSTTDELRESVGSQMEKNTLKLKDLRHQVRSKQNETHRLENENRKLKSLCDSLASTLGPK	not soluble
MSDTVEELVQRAKLAEQAERYDDMAAAMKKVTEQGQELSNEERNLLSVAYKNVVGARRSSWRVISSIEQKTEGSEKKQQLAKEYRVKVEQELNDICQDVLKLLDEFLIVKAGAAESKVFYLKMKGDYYRYLAEVASEDRAAVVEKSQKAYQEALDIAKDKMQPTHPIRLGLALNFSVFYYEILNTPEHACQLAKQAFDDAIAELDTLNEDSYKDSTLIMQLLRDNLTLWTSDVGAEDQEQEGNQEAGN	soluble
MGSDKIHHHHHHMAKVEELTPQQLSETDLKPRGRVYPSPISWRDQFLYQLVLDRFSDDNENQRELFDHTNLAKFQVKDKAGWMAAGTKFVGGTLRGIKSKLDYLQRLGVTTLWINPPWQQRSELEAYHSDRIQEFLDIDPHFGTRQDLRDLIDAAHDRRMYVILDVIYNQNADNWFHRNDVIAALARVYQYWIALSDCDGLRIDSLKHVSPEDSRKFCTAIREYAESIDKDNFLLTGEITSGSMAGAYIDIIARNFSAVLDIAQTPNELAAFAKGLVHPKQFFDLYSENNLAGEYRQIGTYHVSILDDYEMSFRTNKQRFAAYSNVPHLYEQVAHAVGVQLTMPGIPAIYYGTEQAFDGNEGYHDYSIEGRKFAEDRYIKEAMFGGAFGAFQTADCHFFDIDHPTYLRIAAIARIRNSHDKIGKALRRGHHYLRETSFFNSPFSIPGQGELVAWSQTLFDTEVLMVLNTNGLENRGAEVTVDTYMHPQDSTMTFLYKSDWSDSYLRHPPRDQTVAVQHHNDRRATVRIDLPPSGMAILA	not soluble
MVYLLDLSGVYCEPVEPRLLRLLAEESGEPVFYLSEAFYALLPRLKAEGAQALEALFPGASRLYPKAFRPRGLAFPEPFHLVSDLPPPEGVLAYHAPDKLEALALALEALGLAPGEAVYWDDNPLWVERARGLGVRAELFLP	soluble
MSLPAYKRVLLKLSGEALMGDDAFGINRSTIEGMVNDIAEIVRLGVQVAVVIGGGNIFRGVAGGAAGMDRATADYMGMLATMMNALALQDAMRHANIEGRVQSALRMDQVVEPYIRPRAIRQLEEGKVVIFAAGTGNPFFTTDTAAALRGSEIGAEIVLKATKVDGVYTADPKKDPSATRYTTISFDEAISRNLQVMDATAFALCRDQKLPIKVFSIQKPNALKRVIMGEDEGTLEGHHHHHH	soluble
MTITNSKAEAWELIGNQFWTIGRVAARPSDRENDIFLENIVPGSTVAVIGASTRFLIEKALERGASVTVFDFSQRMCDDLAEALADRCVTIDLLDITAEIPKELAGHFDFVLNDRLINRFTTEEARRACLGMLSLVGSGTVRASVKLGFYDIDLKLIEYGEQSGTLAKFFDPSDKTFHFREAGDVLDRALVPHGLIDKPTLLEWYRRRGKETRFDDEDVRAL	not soluble
AIAMWQDQPMPSMDLVKNAFWNYVSQATLTAEETLQMIRNSELGQEINDRISKSTDAINKYTLAIQSQVTPLTQELLTKLSKEADQLKLSLEQEITSAQTQLKPYVEELKVDIEEQIERLKKDVAPYAEALNPEAMRLTLVQRAEELKAKLETSLMAMGPQSEELKQKLEQHFVEFQMSMSPLAESFQSQLAQRSQELQKNLAPYSEELSKLDPLAQDLKDQLTALWESFAKDKQS	soluble
MEQQFILRLHESIKHVVDLGNSTIDICDDRSVVLTHNNKKYPGIVVRLPCIVESQKTMDSRQHYKVADISTLVVVYPDDSFDFDKEREMYELSGLSPPLKYVKARRFRKKSSKIEYVEEIEKKVNDLLEKDMKARSVEVVAKEEKETSDDLDVLAAEIENKLVDNAEAHKEEVQSRPDEIGEKKEEQPRNEEIERLEKGIEEKRRQMESALNPILQKRFESQLNVLLKELEDVKKGMEME	soluble
MGSDKIHHHHHHMDTSIKKKRVRGRLLREMIEDAAFEVIEKEGLAGFSMRKLAAALGCEAMSIYHHFPSVAHLHEALVDRLVGALEMPDASLPWRQRMRIAIEDFRSIGRDHPAYATFFVTYRMNSPICLAWLNGILSLFRDGGFDTELSARLFRAVGYYLMGAVLDENAGYAKGPSAVNTVSDEQLARDFPNVMAAGRFFGTAEFDKTFELGLDMLLDEMERLRDGADAGQLSGKV	not soluble
AGFMVPTTNTAGWGRAMAGGSLFPNDPSAAFNNPAAMAFIDKRIAQLTVNYADIDIKYNGDAYDYQGNPMTGGYQDGPGTPELGTNDGGQAGFGAWLPTGFLVVPINDRFAFGLSQVVPMGMRSTWDPNWKGRDFAVDTKIETIGLTGSLSFKVNDNFSLGAGVIIQRTSGFVSQNLDLYASAANSPGMGGIPFPASNSSALMRVKVDNTSPGFFAGAVWKPTDRDTLGFAYHAKIRNKLKGHYNLYDHDGGLTEGAIEGGTPGLAYPGLDLRMGASASARLDIPAYASLDWVHQFNDRLSLGASATWTEWSSFQDLTLKSHGNTIVSIPYTYRNTWTLAVGGDYKVTDQWTMRAGVAYDQTPTHNATRDPRIPDGDRYFASLGAGYRFQSMPELSIDAAYSRQFVKEVPLKTVNQDRLGGGRLDGRATSKGQVFSLSATYDFHHHHHHHH	soluble
NDLVSFTLRGNASWNRDKIIENDEAPKPYPWMEKRGTNVFSQWGLIADGLFTSEEEIEKHATQFGQVYIGDIKYRDLNNDKKIDSNDICRIGQGTIPKYNYGFGFDVQIGYFSVSALFQGAADVTTCLSGNSIIPFSSQAGIDNLFDNIEDRWSPDDPTNEDVFYPRLHYGNSNNSNNYRASTWWLRNMDYLRLKQFNIAYNLPENTLKSVGVKGARIYLMGTNLLTFSKFKLWDPEVYSSNGAAYPNVMSCSLGVNFSF	not soluble
MGHHHHHHSHMFYLAAAVSDFYVPVSEMPEHKIQSSGGPLQITMKMVPKLLSPLVKDWAPKAFIISFKLETDPAIVINRARKALEIYQHQVVVANILESRQSFVFIVTKDSETKLLLSEEEIEKGVEIEEKIVDNLQSRHTAFIGDRN	not soluble
MKILVALAVFFLVSTQLFAEEIGANDDLNYWSDWYDSDQIKEELPEPFEHLLQRIARRPKPQQFFGLMGKRDADSSIEKQVALLKALYGHGQISHKRHKTDSFVGLMGKRALNSVAYERSAMQNYERRRLEHHHHHH	not soluble
